# Assay results taken from patent US7741283B2, “Compositions and methods for inhibiting cell proliferation” (St. Louis University, priority 2003, dated 2010).
# B1: (Q^3A^4Y^15L^16) IGF-I: an IGF-I analog which has a low affinity for IGFBP-3 (protein, UniProt P05019 49-118, looked up, variant E3Q T4A Q15Y F16L)
# Insulin-like growth factor 1: GPQALCGAELVDALYLVCGDRGFYFNKPTGYGSSSRRAPQTGIVDECCFRSCDLRRLEMYCAPLKPAKSA
# modifications: Insulin-like growth factor I
# B2: IGFBP-1: IGFBP known not to bind to the IGFBP-3 receptor (protein)
# chain: APWQCAPCSAEKLALCPPVSASCSEVTRSAGCGCCPMCALPLGAACGVATARCARGLSCRALPGEQQPLHALTRGQGACVQESDASAPHAAEAGSPESPESTEITEEELLDNFHLMAPSEEDHSILWDAISTYDGSKALHVTNIKKWKEPCRIELYRVVESLAKAQETSGEEISKFYLPNCNKNGFYHSRQCETSMDGEAGLCWCVYPWNGKRIPGSPEIRGDPNCQIYFNVQN
# B3: IGFBP-2: IGFBP known not to bind to the IGFBP-3 receptor (protein, UniProt P18065 36-325, looked up)
# Insulin-like growth …: AEVLFRCPPCTPERLAACGPPPVAPPAAVAAVAGGARMPCAELVREPGCGCCSVCARLEGEACGVYTPRCGQGLRCYPHPGSELPLQALVMGEGTCEKRRDAEYGASPEQVADNGDDHSEGGLVENHVDSTMNMLGGGGSAGRKPLKSGMKELAVFREKVTEQHRQMGKGGKHHLGLEEPKKLRPPPARTPCQQELDQVLERISTMRLPDERGPLEHLYSLHIPNCDKHGLYNLKQCKMSLNGQRGECWCVNPNTGKLIQGAPTIRGDPECHLFYNEQQEARGVHTQRMQ
# B4: lactoferrin: bovine lactoferrin, an LRP-1 ligand (protein, UniProt P24627 20-708, looked up)
# Lactotransferrin: APRKNVRWCTISQPEWFKCRRWQWRMKKLGAPSITCVRRAFALECIRAIAEKKADAVTLDGGMVFEAGRDPYKLRPVAAEIYGTKESPQTHYYAVAVVKKGSNFQLDQLQGRKSCHTGLGRSAGWIIPMGILRPYLSWTESLEPLQGAVAKFFSASCVPCIDRQAYPNLCQLCKGEGENQCACSSREPYFGYSGAFKCLQDGAGDVAFVKETTVFENLPEKADRDQYELLCLNNSRAPVDAFKECHLAQVPSHAVVARSVDGKEDLIWKLLSKAQEKFGKNKSRSFQLFGSPPGQRDLLFKDSALGFLRIPSKVDSALYLGSRYLTTLKNLRETAEEVKARYTRVVWCAVGPEEQKKCQQWSQQSGQNVTCATASTTDDCIVLVLKGEADALNLDGGYIYTAGKCGLVPVLAENRKSSKHSSLDCVLRPTEGYLAVAVVKKANEGLTWNSLKDKKSCHTAVDRTAGWNIPMGLIVNQTGSCAFDEFFSQSCAPGADPKSRLCALCAGDDQGLDKCVPNSKEKYYGYTGAFRCLAEDVGDVAFVKNDTVWENTNGESTADWAKNLNREDFRLLCLDGTRKPVTEAQSCHLAVAPNHAVVSRSDRAAHVKQVLLHQQALFGKNGKNCPDKFCLFKSETKNLLFNDNTECLAKLGGRPTYEEYLGTEYVTAIANLKKCSTSPLLEACAFLTR
# What was measured:
# Mv1Lu cells = assay: [methyl-3H] thymidine incorporation (DNA synthesis), Mv1Lu cells; type: cell-based, mink; settings: Mv1Lu cells
# IRS-2 = assay: 32P metabolic labeling and immunoprecipitation of IRS-2, Mv1Lu cells; type: cell-based, mink; settings: Mv1Lu; for Induction of specific dephosphorylation (mobility change) of 32P-labeled IRS-2: IGFBPs 1 μg/ml, TGF-β1 20 pM
# [1] = test system: TβR-V purified from bovine liver plasma membranes; assay: 125I-IGFBP-3 / 125I-TGF-β1 affinity labeling of purified TβR-V; type: binding; settings: DSS, β1^25(41-65) 20 μM, RAP 10-40 μg/ml, α2M* 100 nM, lactoferrin 100 nM
# acidic pH binding sites [2] = biological target: acidic pH binding sites (Neogale vison, UniProt A0A8C7BSJ2); assay: Specific binding of 125I-ligands to Mv1Lu cells at acidic pH; design: species or system mink
# acidic pH binding sites [3] = biological target: T1, acidic pH binding sites (Mus musculus, UniProt P14824); assay: Specific binding of 125I-ligands to MEF cells at acidic pH; settings: 10 μM protein, pH 5.5, MEF
# T1 sequence (P14824 2-673): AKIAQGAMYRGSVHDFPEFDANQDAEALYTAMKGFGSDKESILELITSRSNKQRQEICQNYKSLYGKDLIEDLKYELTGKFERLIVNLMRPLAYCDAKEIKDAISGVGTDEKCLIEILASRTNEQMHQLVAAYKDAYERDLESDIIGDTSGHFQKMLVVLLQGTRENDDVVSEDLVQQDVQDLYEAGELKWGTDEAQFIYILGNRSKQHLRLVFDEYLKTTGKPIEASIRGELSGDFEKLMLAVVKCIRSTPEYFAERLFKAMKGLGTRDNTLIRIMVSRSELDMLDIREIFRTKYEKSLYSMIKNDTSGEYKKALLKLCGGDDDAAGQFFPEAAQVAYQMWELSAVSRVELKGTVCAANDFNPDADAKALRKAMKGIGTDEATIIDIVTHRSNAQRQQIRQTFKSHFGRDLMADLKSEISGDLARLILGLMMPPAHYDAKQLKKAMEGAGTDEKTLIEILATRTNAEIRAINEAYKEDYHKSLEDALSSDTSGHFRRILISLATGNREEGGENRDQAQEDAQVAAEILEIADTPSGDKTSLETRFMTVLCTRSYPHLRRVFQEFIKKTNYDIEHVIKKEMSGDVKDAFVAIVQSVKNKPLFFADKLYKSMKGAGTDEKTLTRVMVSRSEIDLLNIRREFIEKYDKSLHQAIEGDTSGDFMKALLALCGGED
# LRP-1 [4] = assay: 125I-α2M* binding to Mv1Lu cells at pH 7.4; design: species or system mink; settings: 10 μM protein, pH 7.4, Mv1Lu
# LRP-1 [5] = biological target: T2, LRP-1 (Mus musculus, UniProt Q91ZX7); assay: 125I-α2M* binding to MEF cells at pH 7.4; settings: 10 μM protein, pH 7.4, MEF
# T2 construct: endogenous in cells; host or cells: MEF (mouse embryonic fibroblasts)
# acidic pH binding sites [6] = biological target: T1, acidic pH binding sites; assay: Specific binding of 125I-ligands to PEA-13 cells at acidic pH; design: endogenous in cells; host or cells: PEA-13 (LRP-1-deficient mouse embryonic fibroblasts); settings: 10 μM protein, pH 5.5, PEA-13
# acidic pH binding sites (Neogale vison, UniProt A0A8C7BSJ2), sequence (A0A8C7BSJ2 entry or part of it): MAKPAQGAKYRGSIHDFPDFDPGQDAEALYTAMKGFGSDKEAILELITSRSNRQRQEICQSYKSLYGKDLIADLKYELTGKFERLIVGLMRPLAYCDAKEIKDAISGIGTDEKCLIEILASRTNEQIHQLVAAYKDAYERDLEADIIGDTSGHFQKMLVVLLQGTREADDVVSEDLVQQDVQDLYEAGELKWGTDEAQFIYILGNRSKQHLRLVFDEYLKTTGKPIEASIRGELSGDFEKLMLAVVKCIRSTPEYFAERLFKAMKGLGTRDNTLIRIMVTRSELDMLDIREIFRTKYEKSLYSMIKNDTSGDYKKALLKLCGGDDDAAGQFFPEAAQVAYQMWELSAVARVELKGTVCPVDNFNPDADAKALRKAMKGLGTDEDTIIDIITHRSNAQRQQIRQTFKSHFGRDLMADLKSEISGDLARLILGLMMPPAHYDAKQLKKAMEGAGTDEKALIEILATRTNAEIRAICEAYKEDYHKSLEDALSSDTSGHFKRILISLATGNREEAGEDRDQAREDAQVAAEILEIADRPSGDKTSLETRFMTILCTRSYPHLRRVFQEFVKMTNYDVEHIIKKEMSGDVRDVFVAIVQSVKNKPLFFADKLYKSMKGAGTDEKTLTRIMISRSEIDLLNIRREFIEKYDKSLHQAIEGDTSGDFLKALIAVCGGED
# T2 sequence (Q91ZX7 20-4545): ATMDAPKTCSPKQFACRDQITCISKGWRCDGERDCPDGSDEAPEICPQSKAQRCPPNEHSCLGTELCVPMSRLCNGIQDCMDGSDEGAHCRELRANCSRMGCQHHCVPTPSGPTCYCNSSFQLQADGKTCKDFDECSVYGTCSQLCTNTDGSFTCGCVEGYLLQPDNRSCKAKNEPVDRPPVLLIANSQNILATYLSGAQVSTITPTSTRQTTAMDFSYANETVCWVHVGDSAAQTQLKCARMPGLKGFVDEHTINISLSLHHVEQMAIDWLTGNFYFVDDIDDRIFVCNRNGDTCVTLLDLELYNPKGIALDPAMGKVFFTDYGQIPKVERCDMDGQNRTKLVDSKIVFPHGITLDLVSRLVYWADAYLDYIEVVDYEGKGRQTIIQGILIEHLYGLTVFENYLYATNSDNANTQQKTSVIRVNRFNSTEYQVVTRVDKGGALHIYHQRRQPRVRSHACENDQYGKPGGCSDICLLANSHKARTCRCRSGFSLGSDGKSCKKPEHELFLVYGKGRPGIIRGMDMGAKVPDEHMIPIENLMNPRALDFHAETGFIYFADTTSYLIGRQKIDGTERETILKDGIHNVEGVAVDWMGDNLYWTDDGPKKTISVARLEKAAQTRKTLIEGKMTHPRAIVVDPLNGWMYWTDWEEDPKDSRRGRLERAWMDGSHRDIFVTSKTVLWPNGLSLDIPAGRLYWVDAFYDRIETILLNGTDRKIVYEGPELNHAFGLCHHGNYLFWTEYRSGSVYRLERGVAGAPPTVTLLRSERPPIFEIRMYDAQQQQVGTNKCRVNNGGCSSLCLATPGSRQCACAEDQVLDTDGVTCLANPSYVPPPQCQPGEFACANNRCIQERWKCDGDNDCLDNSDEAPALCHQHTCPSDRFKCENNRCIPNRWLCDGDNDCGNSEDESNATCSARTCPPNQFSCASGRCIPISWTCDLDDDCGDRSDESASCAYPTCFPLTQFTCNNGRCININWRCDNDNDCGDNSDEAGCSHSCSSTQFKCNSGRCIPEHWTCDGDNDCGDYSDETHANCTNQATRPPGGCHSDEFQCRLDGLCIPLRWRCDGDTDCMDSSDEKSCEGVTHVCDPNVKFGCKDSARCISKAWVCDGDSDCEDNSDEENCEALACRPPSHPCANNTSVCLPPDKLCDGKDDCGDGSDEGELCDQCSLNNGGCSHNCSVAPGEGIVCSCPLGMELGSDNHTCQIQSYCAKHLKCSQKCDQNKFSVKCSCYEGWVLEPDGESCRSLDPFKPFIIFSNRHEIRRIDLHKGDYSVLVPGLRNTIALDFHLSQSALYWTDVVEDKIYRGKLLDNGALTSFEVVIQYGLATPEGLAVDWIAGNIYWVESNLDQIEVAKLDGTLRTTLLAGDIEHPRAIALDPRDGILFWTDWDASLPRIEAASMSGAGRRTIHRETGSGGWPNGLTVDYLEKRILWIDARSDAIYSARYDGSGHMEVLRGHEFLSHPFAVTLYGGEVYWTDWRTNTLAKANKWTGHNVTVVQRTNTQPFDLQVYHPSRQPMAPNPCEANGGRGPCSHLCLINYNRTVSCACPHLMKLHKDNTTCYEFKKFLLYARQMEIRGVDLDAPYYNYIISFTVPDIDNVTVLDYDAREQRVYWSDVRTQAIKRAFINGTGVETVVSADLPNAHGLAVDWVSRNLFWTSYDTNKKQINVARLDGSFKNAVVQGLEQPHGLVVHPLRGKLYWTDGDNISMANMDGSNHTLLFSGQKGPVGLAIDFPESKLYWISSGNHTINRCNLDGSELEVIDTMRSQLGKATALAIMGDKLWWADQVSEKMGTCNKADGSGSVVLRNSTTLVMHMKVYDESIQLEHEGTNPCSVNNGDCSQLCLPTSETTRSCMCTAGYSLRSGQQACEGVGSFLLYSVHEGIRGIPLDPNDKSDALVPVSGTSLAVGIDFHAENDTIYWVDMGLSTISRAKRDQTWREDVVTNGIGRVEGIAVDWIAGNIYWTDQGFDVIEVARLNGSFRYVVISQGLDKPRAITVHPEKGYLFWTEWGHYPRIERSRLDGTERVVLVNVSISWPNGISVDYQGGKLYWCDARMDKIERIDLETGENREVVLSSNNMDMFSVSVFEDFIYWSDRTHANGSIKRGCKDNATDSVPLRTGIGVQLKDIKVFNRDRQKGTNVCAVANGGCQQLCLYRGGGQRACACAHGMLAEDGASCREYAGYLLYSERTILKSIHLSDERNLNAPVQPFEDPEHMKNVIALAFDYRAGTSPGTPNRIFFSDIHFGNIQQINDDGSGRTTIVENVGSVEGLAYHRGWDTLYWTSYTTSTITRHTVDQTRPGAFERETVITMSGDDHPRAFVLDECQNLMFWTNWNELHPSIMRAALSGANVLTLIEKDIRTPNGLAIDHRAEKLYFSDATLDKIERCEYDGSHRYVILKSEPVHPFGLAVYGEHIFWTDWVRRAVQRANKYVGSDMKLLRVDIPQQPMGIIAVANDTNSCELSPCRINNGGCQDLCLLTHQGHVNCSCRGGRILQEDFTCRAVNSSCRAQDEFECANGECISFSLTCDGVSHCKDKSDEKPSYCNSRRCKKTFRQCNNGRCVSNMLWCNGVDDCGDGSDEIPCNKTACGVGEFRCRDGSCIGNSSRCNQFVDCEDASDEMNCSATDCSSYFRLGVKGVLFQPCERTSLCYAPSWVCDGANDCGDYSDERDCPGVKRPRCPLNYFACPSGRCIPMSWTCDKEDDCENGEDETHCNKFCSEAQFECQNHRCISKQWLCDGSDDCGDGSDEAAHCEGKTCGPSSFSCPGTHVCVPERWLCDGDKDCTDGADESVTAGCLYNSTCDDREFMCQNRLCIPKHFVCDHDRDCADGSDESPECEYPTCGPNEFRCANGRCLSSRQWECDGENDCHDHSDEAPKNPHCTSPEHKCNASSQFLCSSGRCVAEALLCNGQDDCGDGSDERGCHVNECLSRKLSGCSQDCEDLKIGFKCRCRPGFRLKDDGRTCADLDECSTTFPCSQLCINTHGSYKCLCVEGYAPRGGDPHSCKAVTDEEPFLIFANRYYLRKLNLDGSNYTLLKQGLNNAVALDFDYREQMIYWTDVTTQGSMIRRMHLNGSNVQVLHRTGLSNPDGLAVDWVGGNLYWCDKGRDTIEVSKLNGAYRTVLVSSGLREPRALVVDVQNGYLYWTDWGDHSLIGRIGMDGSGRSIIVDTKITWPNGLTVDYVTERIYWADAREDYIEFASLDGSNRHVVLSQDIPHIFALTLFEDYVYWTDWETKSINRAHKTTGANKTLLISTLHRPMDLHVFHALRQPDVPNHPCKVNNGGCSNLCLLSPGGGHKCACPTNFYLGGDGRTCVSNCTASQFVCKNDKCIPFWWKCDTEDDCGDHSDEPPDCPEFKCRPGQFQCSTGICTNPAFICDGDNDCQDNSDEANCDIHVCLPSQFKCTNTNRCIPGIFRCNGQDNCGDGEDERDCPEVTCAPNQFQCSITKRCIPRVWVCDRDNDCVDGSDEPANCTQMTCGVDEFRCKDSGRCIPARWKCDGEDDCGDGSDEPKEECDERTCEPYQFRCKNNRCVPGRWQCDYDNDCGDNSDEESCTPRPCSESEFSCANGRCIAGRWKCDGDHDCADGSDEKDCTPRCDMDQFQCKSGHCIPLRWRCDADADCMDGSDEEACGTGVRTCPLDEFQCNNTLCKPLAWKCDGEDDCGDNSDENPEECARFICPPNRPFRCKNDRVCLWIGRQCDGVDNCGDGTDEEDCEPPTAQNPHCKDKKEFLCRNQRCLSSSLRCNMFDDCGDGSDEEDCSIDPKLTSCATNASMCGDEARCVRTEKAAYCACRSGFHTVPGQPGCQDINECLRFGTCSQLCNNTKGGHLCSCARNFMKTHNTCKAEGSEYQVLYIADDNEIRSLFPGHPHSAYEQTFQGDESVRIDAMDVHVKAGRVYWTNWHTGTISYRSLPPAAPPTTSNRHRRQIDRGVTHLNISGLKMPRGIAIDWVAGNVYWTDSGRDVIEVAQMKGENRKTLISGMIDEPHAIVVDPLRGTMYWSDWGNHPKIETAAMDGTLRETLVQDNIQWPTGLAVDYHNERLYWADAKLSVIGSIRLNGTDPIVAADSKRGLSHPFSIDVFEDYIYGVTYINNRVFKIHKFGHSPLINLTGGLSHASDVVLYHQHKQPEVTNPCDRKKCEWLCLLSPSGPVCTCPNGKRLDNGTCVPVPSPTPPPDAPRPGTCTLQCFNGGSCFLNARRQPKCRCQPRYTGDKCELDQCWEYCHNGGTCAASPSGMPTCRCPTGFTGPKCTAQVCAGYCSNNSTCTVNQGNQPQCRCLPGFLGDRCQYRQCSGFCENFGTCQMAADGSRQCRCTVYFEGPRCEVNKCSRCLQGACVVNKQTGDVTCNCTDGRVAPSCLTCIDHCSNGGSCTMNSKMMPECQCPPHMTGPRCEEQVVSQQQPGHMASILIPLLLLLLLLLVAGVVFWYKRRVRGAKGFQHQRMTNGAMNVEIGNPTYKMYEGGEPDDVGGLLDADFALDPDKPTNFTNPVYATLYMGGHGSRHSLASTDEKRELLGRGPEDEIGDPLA
molecule,measurement,setting,value
B1,Blocking of IGFBP-3-induced growth inhibition,Mv1Lu cells,completely blocked
same,Blocking of IGFBP-3-induced specific dephosphorylation of IRS-2 by growth factors/cytokines,IRS-2; IGFBP-3 1 μg/ml […] then factor 10 nM (TGF-β1 20 pM) 0.5 hr,blocked
B2,Induction of specific dephosphorylation (mobility change) of 32P-labeled IRS-2,IRS-2,did not induce
B3,Induction of specific dephosphorylation (mobility change) of 32P-labeled IRS-2,IRS-2,did not induce
B4,^125I-TGF-β1 binding to purified TβR-V,"[1]; 0.1 nM 125I-TGF-β1, […] 0° C.",did not have a significant effect
same,^125I-IGFBP-3 binding to purified TβR-V,"[1]; 10 nM 125I-IGFBP-3, […] 0° C.",did not have a significant effect
same,Specific binding of ^125I-α2M*,"acidic pH binding sites [2]; 10 μM protein, pH 5.5, Mv1Lu",completely blocked
same,IC50,"acidic pH binding sites [2]; Mv1Lu cells, pH 5 or 6, read-out: IC50, inhibition of ^125I-α2M* binding to cells",~50 nM
same,Specific binding of ^125I-α2M*,acidic pH binding sites [3],completely blocked
same,^125I-α2M* binding,LRP-1 [4],did not have a significant effect
same,^125I-α2M* binding,LRP-1 [5],did not have a significant effect
same,Specific binding of ^125I-α2M*,acidic pH binding sites [6],completely blocked
